Test results as given in patent publication US20140087995A1 (published 2014).
Numbered stars: 1 amine (or outer) side, 2 acyl side, 3 side chain; on linkers, the order of the positions; unused ones are H or OH. Bridge positions count the residues as written; N and C are the ends. Side chains are listed from the residue outwards. Ends that are not written are not given here. * marks the point of attachment. C20 diacid = O=C(O)CCCCCCCCCCCCCCCCCCC(=O)*; γGlu = O=C(O)[C@H](CCC(=O)[*:2])N[*:1]

T1: rat amylin receptor (rat calcitonin receptor + rat RAMP 3) (rat, UniProt P32214 25-516; Q9JJ73 23-147)
T1 construct: whole, on cells; also called rAmylin-R; rat amylin 3(a) receptor
T1 sequence (looked up) 1: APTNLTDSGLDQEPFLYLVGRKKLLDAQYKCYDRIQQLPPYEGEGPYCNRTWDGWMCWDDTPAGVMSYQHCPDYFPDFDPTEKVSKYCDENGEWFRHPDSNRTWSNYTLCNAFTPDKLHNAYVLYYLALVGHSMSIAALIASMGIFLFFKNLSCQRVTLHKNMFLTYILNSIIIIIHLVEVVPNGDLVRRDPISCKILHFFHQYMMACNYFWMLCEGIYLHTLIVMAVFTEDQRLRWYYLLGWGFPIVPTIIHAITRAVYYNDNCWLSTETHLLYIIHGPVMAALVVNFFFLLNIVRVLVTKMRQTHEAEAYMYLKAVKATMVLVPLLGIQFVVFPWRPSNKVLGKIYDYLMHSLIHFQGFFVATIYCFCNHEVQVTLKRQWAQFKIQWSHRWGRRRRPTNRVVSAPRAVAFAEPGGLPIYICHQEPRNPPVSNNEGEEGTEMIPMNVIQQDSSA
T1 sequence (looked up) 2: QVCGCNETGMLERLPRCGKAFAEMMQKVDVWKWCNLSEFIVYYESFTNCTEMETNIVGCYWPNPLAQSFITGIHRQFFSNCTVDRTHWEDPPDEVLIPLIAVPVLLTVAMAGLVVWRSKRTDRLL

T2: rat calcitonin receptor (rat, UniProt P32214 25-516)
T2 construct: whole, on cells; also called rCTR; rat calcitonin (a) receptor
T2 sequence (looked up): T1 sequence (looked up) 1

T3: human calcitonin receptor (human, UniProt P30988 25-474)
T3 construct: whole, on cells; also called hCTR; hCT
T3 sequence (looked up): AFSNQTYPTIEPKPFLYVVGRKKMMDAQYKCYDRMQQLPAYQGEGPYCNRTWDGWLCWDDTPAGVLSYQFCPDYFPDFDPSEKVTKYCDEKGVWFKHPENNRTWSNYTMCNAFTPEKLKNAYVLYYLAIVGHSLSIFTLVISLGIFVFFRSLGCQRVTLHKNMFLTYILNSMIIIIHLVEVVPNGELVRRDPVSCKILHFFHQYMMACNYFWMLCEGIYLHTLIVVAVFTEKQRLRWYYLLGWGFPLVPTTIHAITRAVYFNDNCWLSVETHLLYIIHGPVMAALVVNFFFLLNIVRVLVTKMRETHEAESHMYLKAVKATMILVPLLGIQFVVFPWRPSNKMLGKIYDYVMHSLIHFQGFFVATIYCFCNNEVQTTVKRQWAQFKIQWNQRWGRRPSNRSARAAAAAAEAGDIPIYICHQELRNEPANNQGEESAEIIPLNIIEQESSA

B1: N^ε1-[(4S)-4-carboxy-4-[[(4S)-4-carboxy-4-(19-carboxynonadecanoylamino)butanoyl]amino]butanoyl]-[Glu14,Arg17,Pro21,Pro27,Arg34]-h-amylin (peptide)
peptide: K([γGlu-γGlu-C20 diacid])CNTATCATQRLAEFLRHSSPNFGAIPSSTNVGRNTY-NH2
modifications: disulfide 2-7; N-terminus assumed
SMILES: CC[C@H](C)[C@H](NC(=O)[C@H](C)NC(=O)CNC(=O)[C@H](Cc1ccccc1)NC(=O)[C@H](CC(N)=O)NC(=O)[C@@H]1CCCN1C(=O)[C@H](CO)NC(=O)[C@H](CO)NC(=O)[C@H](Cc1c[nH]cn1)NC(=O)[C@H](CCCNC(=N)N)NC(=O)[C@H](CC(C)C)NC(=O)[C@H](Cc1ccccc1)NC(=O)[C@H](CCC(=O)O)NC(=O)[C@H](C)NC(=O)[C@H](CC(C)C)NC(=O)[C@H](CCCNC(=N)N)NC(=O)[C@H](CCC(N)=O)NC(=O)[C@@H](NC(=O)[C@H](C)NC(=O)[C@@H]1CSSC[C@H](NC(=O)[C@@H](N)CCCCNC(=O)CC[C@H](NC(=O)CC[C@H](NC(=O)CCCCCCCCCCCCCCCCCCC(=O)O)C(=O)O)C(=O)O)C(=O)N[C@@H](CC(N)=O)C(=O)N[C@@H]([C@@H](C)O)C(=O)N[C@@H](C)C(=O)N[C@@H]([C@@H](C)O)C(=O)N1)[C@@H](C)O)C(=O)N1CCC[C@H]1C(=O)N[C@@H](CO)C(=O)N[C@@H](CO)C(=O)N[C@H](C(=O)N[C@@H](CC(N)=O)C(=O)N[C@H](C(=O)NCC(=O)N[C@@H](CCCNC(=N)N)C(=O)N[C@@H](CC(N)=O)C(=O)N[C@H](C(=O)N[C@@H](Cc1ccc(O)cc1)C(N)=O)[C@@H](C)O)C(C)C)[C@@H](C)O
notes: synthetic analogue of human amylin; also called compound 88
B2: N^ε1-[(4S)-4-carboxy-4-[[(4S)-4-carboxy-4-(19-carboxynonadecanoylamino)butanoyl]amino]butanoyl]-[Glu14,Arg17,Pro21,Pro27,Arg35]-h-amylin (peptide)
peptide: K([γGlu-γGlu-C20 diacid])CNTATCATQRLAEFLRHSSPNFGAIPSSTNVGSRTY-NH2
modifications: disulfide 2-7; N-terminus assumed
SMILES: CC[C@H](C)[C@H](NC(=O)[C@H](C)NC(=O)CNC(=O)[C@H](Cc1ccccc1)NC(=O)[C@H](CC(N)=O)NC(=O)[C@@H]1CCCN1C(=O)[C@H](CO)NC(=O)[C@H](CO)NC(=O)[C@H](Cc1c[nH]cn1)NC(=O)[C@H](CCCNC(=N)N)NC(=O)[C@H](CC(C)C)NC(=O)[C@H](Cc1ccccc1)NC(=O)[C@H](CCC(=O)O)NC(=O)[C@H](C)NC(=O)[C@H](CC(C)C)NC(=O)[C@H](CCCNC(=N)N)NC(=O)[C@H](CCC(N)=O)NC(=O)[C@@H](NC(=O)[C@H](C)NC(=O)[C@@H]1CSSC[C@H](NC(=O)[C@@H](N)CCCCNC(=O)CC[C@H](NC(=O)CC[C@H](NC(=O)CCCCCCCCCCCCCCCCCCC(=O)O)C(=O)O)C(=O)O)C(=O)N[C@@H](CC(N)=O)C(=O)N[C@@H]([C@@H](C)O)C(=O)N[C@@H](C)C(=O)N[C@@H]([C@@H](C)O)C(=O)N1)[C@@H](C)O)C(=O)N1CCC[C@H]1C(=O)N[C@@H](CO)C(=O)N[C@@H](CO)C(=O)N[C@H](C(=O)N[C@@H](CC(N)=O)C(=O)N[C@H](C(=O)NCC(=O)N[C@@H](CO)C(=O)N[C@@H](CCCNC(=N)N)C(=O)N[C@H](C(=O)N[C@@H](Cc1ccc(O)cc1)C(N)=O)[C@@H](C)O)C(C)C)[C@@H](C)O
notes: synthetic analogue of human amylin; also called compound 89
B3: N^ε21-[(4S)-4-carboxy-4-[[(4S)-4-carboxy-4-(19-carboxynonadecanoylamino)butanoyl]amino]butanoyl]-[Asp14,Arg17,Lys21,Pro27,Asp35]-h-amylin (peptide)
peptide: KCNTATCATQRLADFLRHSSK([γGlu-γGlu-C20 diacid])NFGAIPSSTNVGSDTY-NH2
modifications: disulfide 2-7; N-terminus assumed
SMILES: CC[C@H](C)[C@H](NC(=O)[C@H](C)NC(=O)CNC(=O)[C@H](Cc1ccccc1)NC(=O)[C@H](CC(N)=O)NC(=O)[C@H](CCCCNC(=O)CC[C@H](NC(=O)CC[C@H](NC(=O)CCCCCCCCCCCCCCCCCCC(=O)O)C(=O)O)C(=O)O)NC(=O)[C@H](CO)NC(=O)[C@H](CO)NC(=O)[C@H](Cc1c[nH]cn1)NC(=O)[C@H](CCCNC(=N)N)NC(=O)[C@H](CC(C)C)NC(=O)[C@H](Cc1ccccc1)NC(=O)[C@H](CC(=O)O)NC(=O)[C@H](C)NC(=O)[C@H](CC(C)C)NC(=O)[C@H](CCCNC(=N)N)NC(=O)[C@H](CCC(N)=O)NC(=O)[C@@H](NC(=O)[C@H](C)NC(=O)[C@@H]1CSSC[C@H](NC(=O)[C@@H](N)CCCCN)C(=O)N[C@@H](CC(N)=O)C(=O)N[C@@H]([C@@H](C)O)C(=O)N[C@@H](C)C(=O)N[C@@H]([C@@H](C)O)C(=O)N1)[C@@H](C)O)C(=O)N1CCC[C@H]1C(=O)N[C@@H](CO)C(=O)N[C@@H](CO)C(=O)N[C@H](C(=O)N[C@@H](CC(N)=O)C(=O)N[C@H](C(=O)NCC(=O)N[C@@H](CO)C(=O)N[C@@H](CC(=O)O)C(=O)N[C@H](C(=O)N[C@@H](Cc1ccc(O)cc1)C(N)=O)[C@@H](C)O)C(C)C)[C@@H](C)O
notes: synthetic analogue of human amylin; also called compound 59
B4: N^ε1-[(4S)-4-carboxy-4-[[(4S)-4-carboxy-4-(19-carboxynonadecanoylamino)butanoyl]amino]butanoyl]-[Glu14,Arg17,Pro21,Pro27,His34]-h-amylin (peptide)
peptide: K([γGlu-γGlu-C20 diacid])CNTATCATQRLAEFLRHSSPNFGAIPSSTNVGHNTY-NH2
modifications: disulfide 2-7; N-terminus assumed
SMILES: CC[C@H](C)[C@H](NC(=O)[C@H](C)NC(=O)CNC(=O)[C@H](Cc1ccccc1)NC(=O)[C@H](CC(N)=O)NC(=O)[C@@H]1CCCN1C(=O)[C@H](CO)NC(=O)[C@H](CO)NC(=O)[C@H](Cc1c[nH]cn1)NC(=O)[C@H](CCCNC(=N)N)NC(=O)[C@H](CC(C)C)NC(=O)[C@H](Cc1ccccc1)NC(=O)[C@H](CCC(=O)O)NC(=O)[C@H](C)NC(=O)[C@H](CC(C)C)NC(=O)[C@H](CCCNC(=N)N)NC(=O)[C@H](CCC(N)=O)NC(=O)[C@@H](NC(=O)[C@H](C)NC(=O)[C@@H]1CSSC[C@H](NC(=O)[C@@H](N)CCCCNC(=O)CC[C@H](NC(=O)CC[C@H](NC(=O)CCCCCCCCCCCCCCCCCCC(=O)O)C(=O)O)C(=O)O)C(=O)N[C@@H](CC(N)=O)C(=O)N[C@@H]([C@@H](C)O)C(=O)N[C@@H](C)C(=O)N[C@@H]([C@@H](C)O)C(=O)N1)[C@@H](C)O)C(=O)N1CCC[C@H]1C(=O)N[C@@H](CO)C(=O)N[C@@H](CO)C(=O)N[C@H](C(=O)N[C@@H](CC(N)=O)C(=O)N[C@H](C(=O)NCC(=O)N[C@@H](Cc1c[nH]cn1)C(=O)N[C@@H](CC(N)=O)C(=O)N[C@H](C(=O)N[C@@H](Cc1ccc(O)cc1)C(N)=O)[C@@H](C)O)C(C)C)[C@@H](C)O
notes: synthetic analogue of human amylin; also called compound 87

Target: T1, rat amylin receptor (rat calcitonin …)
Assay: SPA competition with 125I-rat amylin, membranes of BHK cells with rat calcitonin receptor + rat RAMP3 (Assay VI)

**Q.** With B1 as the binder, how does the IC50 read?
**A.** The IC50 was 2.31 nM.

**Q.** How did the IC50 turn out when B2 was run?
**A.** The IC50 was 2.37 nM.

**Q.** B3 was tested. Which IC50 did it give?
**A.** Its IC50 is 0.659 nM.

**Q.** B4 was tested. Which IC50 did it give?
**A.** The IC50 was 2.07 nM.

Target: T2, rat calcitonin receptor
Assay: ratio of binding IC50s: rat calcitonin receptor over rat amylin receptor (reference)

**Q.** For B1, which “Ratio rCT/rAmylin binding” value is on record?
**A.** Its value is 84.9.

**Q.** With B2 as the binder, how does the “Ratio rCT/rAmylin binding” value read?
**A.** Its value is 48.8.

**Q.** How did the “Ratio rCT/rAmylin binding” value turn out when B3 was run?
**A.** Its value is 28.5.

**Q.** B4 was tested. Which “Ratio rCT/rAmylin binding” value did it give?
**A.** Its value is 45.6.

Target: T3, human calcitonin receptor
Assay: ratio of binding IC50s: human calcitonin receptor over human amylin receptor (reference)
Summary of the method: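 Membranes (35 ng/μL final) + SPA beads, 50 mM Hepes pH 7.4 buffer with 1 mM CaCl2, 5 mM MgCl₂, 0.1% OA, 0.02% Tween20; 120 min, 25° C, shaking; centrifuged, counted; IC₅₀ by one-site binding competition.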

**Q.** B1 was tested. Which “Ratio hCT/hAmylin binding” value did it give?
**A.** Its value is 46.5.

**Q.** How did the “Ratio hCT/hAmylin binding” value turn out when B2 was run?
**A.** The value was 28.

**Q.** How did the “Ratio hCT/hAmylin binding” value turn out when B3 was run?
**A.** The value was 4.3.

**Q.** B4 was tested. Which “Ratio hCT/hAmylin binding” value did it give?
**A.** Its value is 35.6.

Target: T2, rat calcitonin receptor
Assay: SPA competition with 125I-calcitonin, membranes of BHK cells with rat calcitonin receptor (Assay VIII)

**Q.** Which IC50 does the source give for B1 here?
**A.** Its IC50 is 196 nM.

**Q.** For B2, which IC50 is on record?
**A.** The IC50 was 115 nM.

**Q.** With B3 as the binder, how does the IC50 read?
**A.** The IC50 was 18.8 nM.

**Q.** How did the IC50 turn out when B4 was run?
**A.** The IC50 was 94.5 nM.
